{"source": "patent CN118126168A", "key": {"[1]": {"substrate": "禽流感病毒NP蛋白 (avian influenza virus)"}, "[2]": {"substrate": "禽流感病毒NP蛋白 (avian influenza virus)", "assay": "indirect ELISA"}}, "data": [{"binder": "禽流感病毒NP蛋白的单克隆抗体 (antibody, V domains shown) VH: EVRLQESRPELVEPGASVKISCNASAYTFSDYWMNCVKQSHGKSLECIGDISPTYDRTSYNHKFKGYATLTVDKSSSSAYIELRSLTSDDSAVYYCARGGYGNYRDYWGKRTTRTVSS VL: MKYLLATAAAGILLLAAQPAMADVVMSQTTRTLSVSIEQPASISCKSSQSLLHSDGKSYLNWLLQRPRQSPKCLSYLVSRRDSGVPDRVTGSSSGTDVTLGISSVEAEDLRVYYYWQRTHCPITVGSGTKLDIK", "values": [{"measurement": "试纸条灵敏度 (lowest NP concentration detected)", "setting": "[1]", "value": 0.18, "unit": "µg/mL"}, {"measurement": "ELISA titre (dilution still positive) (fold dilution)", "setting": "[2]", "value": "> 102000"}]}]}
